Experimental data from the supplement of paper PMC5998384.

Legend:
HeLa Kyoto [1] = assay: melting temperature (median over replicates), in situ; higher = more thermally stable
HeLa Kyoto [2] = assay: thermal stability score vs G1/S (z-score of summed log2 fold changes over temperatures); higher = more thermally stable than in G1/S
HeLa Kyoto [3] = assay: solubility change mitosis vs G1/S (difference of NP-40 vs SDS log2 ratios) (log2 ratio difference); higher = more soluble in mitosis
HeLa Kyoto [4] = assay: solubility in G1/S (NP-40 vs SDS abundance) (log2 ratio); higher = more soluble; conditions: cell cycle stage: G1/S
[5] = cell cycle stage: early G1 (4.5 h after nocodazole release)
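Throughout, for melting temperature (median over replicates), in situ: HeLa Kyoto cells synchronized by double thymidine or nocodazole block, proteins quantified by TMT10plex mass spectrometry, three independent biological replicates.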
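Throughout, for solubility change mitosis vs G1/S (difference of NP-40 vs SDS log2 ratios): synchronized HeLa Kyoto cells (double thymidine block for G1/S, nocodazole release for mitosis), protein amounts in NP-40 versus SDS lysates quantified by mass spectrometry, three biological replicates.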
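Throughout, for solubility in G1/S (NP-40 vs SDS abundance): HeLa Kyoto cells arrested at G1/S by double thymidine block, proteins quantified by TMT10plex mass spectrometry in mild NP-40 versus SDS extracts, three biological replicates.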
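Throughout, for thermal stability score vs G1/S (z-score of summed log2 fold changes over temperatures): synchronized HeLa Kyoto cells, proteins quantified by TMT10plex mass spectrometry, three biological replicates, mitosis taken 0.5 h after nocodazole release, G1/S directly after double thymidine block.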

| Sequence | melting temperature (HeLa Kyoto [1]; cell cycle stage: G1/S) | melting temperature (HeLa Kyoto [1]; cell cycle stage: mitosis) | thermal stability score (HeLa Kyoto [2]; [5]) | thermal stability score (HeLa Kyoto [2]; cell cycle stage: mitosis) | solubility change mitosis (log2) (HeLa Kyoto [3]) | solubility in G1/S (log2) (HeLa Kyoto [4]) |
| --- | --- | --- | --- | --- | --- | --- |
| MRTAGRDPVPRRSPRWRRAVPLCETSAGRRVTQLRGDDLRRPATMKGKERSPVKAKRSRGGEDSTSRGERSKKLGGSGGSNGSSSGKTDSGGGSRRSLHLDKSSSRGGSREYDTGGGSSSSRLHSYSSPSTKNSSGGGESRSSSRGGGGESRSSGAASSAPGGGDGAEYKTLKISELGSQLSDEAVEDGLFHEFKRFGDVSVKISHLSGSGSGDERVAFVNFRRPEDARAAKHARGRLVLYDRPLKIEAVYVSRRRSRSPLDKDTYPPSASVVGASVGGHRHPPGGGGGQRSLSPGGAALGYRDYRLQQLALGRLPPPPPPPLPRDLERERDYPFYERVRPAYSLEPRVGAGAGAAPFREVDEISPEDDQRANRTLFLGNLDITVTESDLRRAFDRFGVITEVDIKRPSRGQTSTYGFLKFENLDMSHRAKLAMSGKIIIRNPIKIGYGKATPTTRLWVGGLGPWVPLAALAREFDRFGTIRTIDYRKGDSWAYIQYESLDAAHAAWTHMRGFPLGGPDRRLRVDFADTEHRYQQQYLQPLPLTHYELVTDAFGHRAPDPLRGARDRTPPLLYRDRDRDLYPDSDWVPPPPPVRERSTRTAATSVPAYEPLDSLDRRRDGWSLDRDRGDRDLPSSRDQPRKRRLPEESGGRHLDRSPESDRPRKRHCAPSPDRSPELSSSRDRYNSDNDRSSRLLLERPSPIRDRRGSLEKSQGDKRDRKNSASAERDRKHRTTAPTEGKSPLKKEDRSDGSAPSTSTASSKLKSPSQKQDGGTAPVASASPKLCLAWQGMLLLKNSNFPSNMHLLQGDLQVASSLLVEGSTGGKVAQLKITQRLRLDQPKLDEVTRRIKVAGPNGYAILLAVPGSSDSRSSSSSAASDTATSTQRPLRNLVSYLKQKQAAGVISLPVGGNKDKENTGVLHAFPPCEFSQQFLDSPAKALAKSEEDYLVMIIVRGFGFQIGVRYENKKRENLALTLL [RBM15] | 46.7 °C | 48.7 °C | 2.61 | 6.38 | 0.598 | -0.606 |
| MRVAAATAAAGAGPAMAVWTRATKAGLVELLLRERWVRVVAELSGESLSLTGDAAAAELEPALGPAAAAFNGLPNGGGAGDSLPGSPSRGLGPPSPPAPPRGPAGEAGASPPVRRVRVVKQEAGGLGISIKGGRENRMPILISKIFPGLAADQSRALRLGDAILSVNGTDLRQATHDQAVQALKRAGKEVLLEVKFIREVTPYIKKPSLVSDLPWEGAAPQSPSFSGSEDSGSPKHQNSTKDRKIIPLKMCFAARNLSMPDLENRLIELHSPDSRNTLILRCKDTATAHSWFVAIHTNIMALLPQVLAELNAMLGATSTAGGSKEVKHIAWLAEQAKLDGGRQQWRPVLMAVTEKDLLLYDCMPWTRDAWASPCHSYPLVATRLVHSGSGCRSPSLGSDLTFATRTGSRQGIEMHLFRVETHRDLSSWTRILVQGCHAAAELIKEVSLGCMLNGQEVRLTIHYENGFTISRENGGSSSILYRYPFERLKMSADDGIRNLYLDFGGPEGELTMDLHSCPKPIVFVLHTFLSAKVTRMGLLV [SNTB2] | 49.4 °C | 50.3 °C | 0.506 | 0.99 | 0.0092 | -0.0262 |
| MRVAALISGGKDSCYNMMQCIAAGHQIVALANLRPAENQVGSDELDSYMYQTVGHHAIDLYAEAMALPLYRRTIRGRSLDTRQVYTKCEGDEVEDLYELLKLVKEKEEVEGISVGAILSDYQRIRVENVCKRLNLQPLAYLWQRNQEDLLREMISSNIQAMIIKVAALGLDPDKHLGKTLDQMEPYLIELSKKYGVHVCGEGGEYETFTLDCPLFKKKIIVDSSEVVIHSADAFAPVAYLRFLELHLEDKVSSVPDNYRTSNYIYNF [DPH6] | 50.2 °C | 50.6 °C | -0.982 | 0.029 | -0.0821 | 0.152 |
| MRVAGAAKLVVAVAVFLLTFYVISQVFEIKMDASLGNLFARSALDTAARSTKPPRYKCGISKACPEKHFAFKMASGAANVVGPKICLEDNVLMSGVKNNVGRGINVALANGKTGEVLDTKYFDMWGGDVAPFIEFLKAIQDGTIVLMGTYDDGATKLNDEARRLIADLGSTSITNLGFRDNWVFCGGKGIKTKSPFEQHIKNNKDTNKYEGWPEVVEMEGCIPQKQD [FAM3C] | 54.2 °C | 53.2 °C | 0.362 | 0.765 | 0.0546 | 0.634 |
| MRVRIGLTLLLCAVLLSLASASSDEEGSQDESLDSKTTLTSDESVKDHTTAGRVVAGQIFLDSEESELESSIQEEEDSLKSQEGESVTEDISFLESPNPENKDYEEPKKVRKPALTAIEGTAHGEPCHFPFLFLDKEYDECTSDGREDGRLWCATTYDYKADEKWGFCETEEEAAKRRQMQEAEMMYQTGMKILNGSNKKSQKREAYRYLQKAASMNHTKALERVSYALLFGDYLPQNIQAAREMFEKLTEEGSPKGQTALGFLYASGLGVNSSQAKALVYYTFGALGGNLIAHMVLGYRYWAGIGVLQSCESALTHYRLVANHVASDISLTGGSVVQRIRLPDEVENPGMNSGMLEEDLIQYYQFLAEKGDVQAQVGLGQLHLHGGRGVEQNHQRAFDYFNLAANAGNSHAMAFLGKMYSEGSDIVPQSNETALHYFKKAADMGNPVGQSGLGMAYLYGRGVQVNYDLALKYFQKAAEQGWVDGQLQLGSMYYNGIGVKRDYKQALKYFNLASQGGHILAFYNLAQMHASGTGVMRSCHTAVELFKNVCERGRWSERLMTAYNSYKDGDYNAAVIQYLLLAEQGYEVAQSNAAFILDQREASIVGENETYPRALLHWNRAASQGYTVARIKLGDYHFYGFGTDVDYETAFIHYRLASEQQHSAQAMFNLGYMHEKGLGIKQDIHLAKRFYDMAAEASPDAQVPVFLALCKLGVVYFLQYIRETNIRDMFTQLDMDQLLGPEWDLYLMTIIALLLGTVIAYRQRQHQDMPAPRPPGPRPAPPQQEGPPEQQPPQ [SEL1L] | 53.9 °C | 52 °C | -0.563 | -0.64 | -0.0462 | 0.228 |
| MRWGHHLPRASWGSGFRRALQRPDDRIPFLIHWSWPLQGERPFGPPRAFIRHHGSSVDSAPPPGRHGRLFPSASATEAIQRHRRNLAEWFSRLPREERQFGPTFALDTVHVDPVIRESTPDELLRPPAELALEHQPPQAGLPPLALSQLFNPDACGRRVQTVVLYGTVGTGKSTLVRKMVLDWCYGRLPAFELLIPFSCEDLSSLGPAPASLCQLVAQRYTPLKEVLPLMAAAGSHLLFVLHGLEHLNLDFRLAGTGLCSDPEEPQEPAAIIVNLLRKYMLPQASILVTTRPSAIGRIPSKYVGRYGEICGFSDTNLQKLYFQLRLNQPYCGYAVGGSGVSATPAQRDHLVQMLSRNLEGHHQIAAACFLPSYCWLVCATLHFLHAPTPAGQTLTSIYTSFLRLNFSGETLDSTDPSNLSLMAYAARTMGKLAYEGVSSRKTYFSEEDVCGCLEAGIRTEEEFQLLHIFRRDALRFFLAPCVEPGRAGTFVFTVPAMQEYLAALYIVLGLRKTTLQKVGKEVAELVGRVGEDVSLVLGIMAKLLPLRALPLLFNLIKVVPRVFGRMVGKSREAVAQAMVLEMFREEDYYNDDVLDQMGASILGVEGPRRHPDEPPEDEVFELFPMFMGGLLSAHNRAVLAQLGCPIKNLDALENAQAIKKKLGKLGRQVLPPSELLDHLFFHYEFQNQRFSAEVLSSLRQLNLAGVRMTPVKCTVVAAVLGSGRHALDEVNLASCQLDPAGLRTLLPVFLRARKLGLQLNSLGPEACKDLRDLLLHDQCQITTLRLSNNPLTAAGVAVLMEGLAGNTSVTHLSLLHTGLGDEGLELLAAQLDRNRQLQELNVAYNGAGDTAALALARAAREHPSLELLHLYFNELSSEGRQVLRDLGGAAEGGARVVVSLTEGTAVSEYWSVILSEVQRNLNSWDRARVQRHLELLLRDLEDSRGATLNPWRKAQLLRVEGEVRALLEQLGSSGS [NLRX1] | 54.3 °C | 54.7 °C | -0.577 | -2.13 | 0.0927 | -0.273 |
| MRWGLRPRGPGAAALATARSLWGTPRLPCSPGWQGATKRLLVRSVSGASNHQPNSNSGRYRDTVLLPQTSFPMKLLGRQQPDTELEIQQKCGFSELYSWQRERKVKTEFCLHDGPPYANGDPHVGHALNKILKDIANRFHMMNGSKIHFVPGWDCHGLPIEIKVLSELGREAQNLSAMEIRKKARSFAKAAIEKQKSAFIRWGIMADWNNCYYTFDGKYEAKQLRTFYQMYDKGLVYRSYKPVFWSPSSRTALAEAELEYNPEHVSRSIYVKFPLLKPSPKLASLIDGSSPVSILVWTTQPWTIPANEAVCYMPESKYAVVKCSKSGDLYVLAADKVASVASTLETTFETISTLSGVDLENGTCSHPLIPDKASPLLPANHVTMAKGTGLVHTAPAHGMEDYGVASQHNLPMDCLVDEDGVFTDVAGPELQNKAVLEEGTDVVIKMLQTAKNLLKEEKLVHSYPYDWRTKKPVVIRASKQWFINITDIKTAAKELLKKVKFIPGSALNGMVEMMDRRPYWCISRQRVWGVPIPVFHHKTKDEYLINSQTTEHIVKLVEQHGSDIWWTLPPEQLLPKEVLSEVGGPDALEYVPGQDILDIWFDSGTSWSYVLPGPDQRADLYLEGKDQLGGWFQSSLLTSVAARKRAPYKTVIVHGFTLGEKGEKMSKSLGNVIHPDVVVNGGQDQSKEPPYGADVLRWWVADSNVFTEVAIGPSVLNAARDDISKLRNTLRFLLGNVADFNPETDSIPVNDMYVIDQYMLHLLQDLANKITELYKQYDFGKVVRLLRTFYTRELSNFYFSIIKDRLYCEKENDPKRRSCQTALVEILDVIVRSFAPILPHLAEEVFQHIPYIKEPKSVFRTGWISTSSIWKKPGLEEAVESACAMRDSFLGSIPGKNAAEYKVITVIEPGLLFEIIEMLQSEETSSTSQLNELMMASESTLLAQEPREMTADVIELKGKFLINLEGGDIREESSYKVIVMPTTKEKCPRCWKYTAESSDTLCPRCAEVVSGK [IARS2] | 54.9 °C | 54.9 °C | -0.383 | -1.42 | -0.0958 | -0.0329 |
| MSAAIAALAASYGSGSGSESDSDSESSRCPLPAADSLMHLTKSPSSKPSLAVAVDSAPEVAVKEDLETGVHLDPAVKEVQYNPTYETMFAPEFGPENPFRTQQMAAPRNMLSGYAEPAHINDFMFEQQRRTFATYGYALDPSLDNHQVSAKYIGSVEEAEKNQGLTVFETGQKKTEKRKKFKENDASNIDGFLGPWAKYVDEKDVAKPSEEEQKELDEITAKRQKKGKQEEEKPGEEKTILHVKEMYDYQGRSYLHIPQDVGVNLRSTMPPEKCYLPKKQIHVWSGHTKGVSAVRLFPLSGHLLLSCSMDCKIKLWEVYGERRCLRTFIGHSKAVRDICFNTAGTQFLSAAYDRYLKLWDTETGQCISRFTNRKVPYCVKFNPDEDKQNLFVAGMSDKKIVQWDIRSGEIVQEYDRHLGAVNTIVFVDENRRFVSTSDDKSLRVWEWDIPVDFKYIAEPSMHSMPAVTLSPNGKWLACQSMDNQILIFGAQNRFRLNKKKIFKGHMVAGYACQVDFSPDMSYVISGDGNGKLNIWDWKTTKLYSRFKAHDKVCIGAVWHPHETSKVITCGWDGLIKLWD [CDC40] | 53.1 °C | 51.9 °C | -1 | -0.655 | 0.525 | -0.918 |
| MSAEVETSEGVDESEKKNSGALEKENQMRMADLSELLKEGTKEAHDRAENTQFVKDFLKGNIKKELFKLATTALYFTYSALEEEMERNKDHPAFAPLYFPMELHRKEALTKDMEYFFGENWEEQVQCPKAAQKYVERIHYIGQNEPELLVAHAYTRYMGDLSGGQVLKKVAQRALKLPSTGEGTQFYLFENVDNAQQFKQLYRARMNALDLNMKTKERIVEEANKAFEYNMQIFNELDQAGSTLARETLEDGFPVHDGKGDMRKCPFYAAEQDKGALEGSSCPFRTAMAVLRKPSLQFILAAGVALAAGLLAWYYM [HMOX2] | 49.4 °C | 51 °C | 0.884 | 1.97 | 0.0224 | 0.427 |
| MSAHNRGTELDLSWISKIQVNHPAVLRRAEQIQARRTVKKEWQAAWLLKAVTFIDLTTLSGDDTSSNIQRLCYKAKYPIREDLLKALNMHDKGITTAAVCVYPARVCDAVKALKAAGCNIPVASVAAGFPAGQTHLKTRLEEIRLAVEDGATEIDVVINRSLVLTGQWEALYDEIRQFRKACGEAHLKTILATGELGTLTNVYKASMIAMMAGSDFIKTSTGKETVNATFPVAIVMLRAIRDFFWKTGNKIGFKPAGGIRSAKDSLAWLSLVKEELGDEWLKPELFRIGASTLLSDIERQIYHHVTGRYAAYHDLPMS [DERA] | 56.1 °C | 56.1 °C | -3.39 | -3.58 | -0.0424 | -0.131 |
